The target of assay [1] is T1, HGREM1-His (ACRO) (human, UniProt O60565 25-184).
T1 construct: Lys25-Asp184 of NP_037504 with C-terminal polyhistidine tag (ACRO GR1-H52H3); they are put here; also called hGREM1 (ACRO); human gremlin (ACRO)
T1 sequence: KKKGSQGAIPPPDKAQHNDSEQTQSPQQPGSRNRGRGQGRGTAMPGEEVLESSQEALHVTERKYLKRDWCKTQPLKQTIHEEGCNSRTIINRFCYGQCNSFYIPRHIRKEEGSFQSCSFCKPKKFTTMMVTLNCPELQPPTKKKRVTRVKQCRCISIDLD
The experiment in a line: ELISA, binding to hGremlin-his. For orientation: In an ELISA, binding on a coated surface is turned into a signal by an enzyme label.

Assay [2] concerns the target T2, Mouse Gremlin-His (R&D) (mouse, UniProt O70326 25-184).
T2 construct: Lys25-Asp184 with 10xHis, R&D 956-GR; also called mouse gremlin (R&D); mGREM1
T2 sequence: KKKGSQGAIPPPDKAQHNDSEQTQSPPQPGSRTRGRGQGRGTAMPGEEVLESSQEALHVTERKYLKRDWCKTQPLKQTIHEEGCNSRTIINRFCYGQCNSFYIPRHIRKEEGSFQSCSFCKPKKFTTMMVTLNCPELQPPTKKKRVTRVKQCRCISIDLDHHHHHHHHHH
Kind of assay: ELISA, coated mouse gremlin (R&D). The procedure: (§1) Clear polystyrene plates (BEAVER) were coated with 100 μl/well of a […] hGREM1 (ACRO) and mouse gremlin (R&D) in high pH coating buffer overnight at 4° C. Then the plates were washed once on an automatic plate washer using PBS+0.1% Tween 20 (Sigma). 100 μl of block solution consisting of PBS+1% BSA+1% normal goat serum+0.5% Tween 20 (Sigma) was added to each well and incubated at room temperature for 2 hours. Then 100 μl of antibodies in antibody dilution buffer containing PBS+1% BSA+1% normal goat serum+0.01% Tween 20 starting from 2 μg/ml and then serial dilutions were added to each well of the plate and incubated for 1 hours at room temperature. Afterward the plates were washed three times with 200 μl of PBS+0.1% Tween20 followed by adding 100 μl/well 1:10000 Goat anti mouse IgG-HRP (abcam), and incubate for 1 hour at room temperature. They were then washed 3× with PBS+0.1% Tween20. Finally, 100 µl/well of TMB (Pierce) was added to each well and after several minutes add 50 μl of stop solution to each well. The plates were read on a Multiscan FC microplate reader (Thermo Scientific) at […].

Assay [3] concerns the target T1, HGREM1-His (ACRO). The experiment in a line: ELISA, coated hGREM1 (ACRO). The procedure: as §1
Assay [4] deals with T1, HGREM1-His (ACRO). Kind of assay: ELISA on coated human Gremlin-his; unit from the axis Ab(nM); panel called FIG. 19C in the text. The procedure:
(§2) Clear polystyrene plates (BEAVER) were coated with 100 μl/well of a 0.5 μg/ml human gremlin (ACRO) and DAN (Sinobiological) in high pH coating buffer overnight at 4° C. Then the plates were washed once on an automatic plate washer using PBS+0.1% Tween 20 (Sigma). 100 μl of block solution consisting of PBS+1% BSA+1% normal goat serum+0.5% Tween 20 (Sigma) was added to each well and incubated at room temperature for 2 hours. Then 100 ul of antibodies (hybridoma or chimeric antibody 36F5, chimeric antibody 67G11, chimeric antibody 42B9) in antibody dilution buffer containing PBS+1% BSA+1% normal goat serum+0.01% Tween 20 starting from 2 μg/ml (13.33 nM) and then 4 fold serial dilution were added to each well of the plate and incubated for 1 hours at room temperature. Afterward the plates were washed three times with 200 ul of PBS+0.1% Tween20 followed by adding 100 μl/well 1:10000 Goat anti mouse IgG-HRP or mouse anti-human IgG-HRP (abcam), and incubate for 1 hour at room temperature. They were then washed 3× with PBS+0.1% Tween20. Finally, 100 μl/well of TMB (InnoReagents) was added to each well and after 2 minutes add 50 ul of stop solution to each well. The plates were read on a Multiscan FC microplate reader (Thermo Scientific) at 450 nm.

Assay [5] has as its target T3, DAN-his (Sinobiological) (human, UniProt P41271 17-181, limits assumed).
T3 construct: also called DAN (Sinobiological); human DAN-his
T3 sequence (looked up): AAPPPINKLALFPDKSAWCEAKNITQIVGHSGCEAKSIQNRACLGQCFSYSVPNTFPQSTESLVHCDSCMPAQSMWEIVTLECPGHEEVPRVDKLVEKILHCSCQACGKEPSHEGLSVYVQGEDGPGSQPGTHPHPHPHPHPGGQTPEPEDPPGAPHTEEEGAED
Kind of assay: ELISA on coated DAN-his; unit from the axis Ab(nM); panel called FIG. 19C in the text. The procedure: as §2

Changes are numbered by the printed parent chain.

The text below walks through data of US20240294622A1 (SUZHOU TRANSCENTA THERAPEUTICS, published 2024).

B1: Hu14E3_HbLa (antibody, IgG1, V domains shown)
VH: QIQLVQSGSELKKPGASVKVSCKASGYTFTTYGMAWMRQAPGQGLEWMGWINTLSGEPTYADDFKGRFAFSLDTSVSTAYLQISSLKAEDTAVYYCAREPMDYWGQGTMVTVSS
VL: DVVMTQSPLSLPVTLGQPASISCKSSQSLLDSDGKTYLSWLQQRPGQSPRRLIYLVSKLDSGVPDRFSGSGSGTDFTLKISRVEAEDVGVYYCWQGAHFPLTFGQGTKLEIK
notes: humanized
For the molecule B1, the EC50 – broadly, the concentration at which the effect is half-maximal – in assay [1] amounted to 0.006 µg/mL.

B2: Hu22F1_HcLa (antibody, V domains shown)
VH: QAQLVQSGAEVKKPGASVKVSCKASGYSFTDYYMNWVRQAPGQGLEWMGDINPKDGDSGYSHKFKGRVTLTVDKSTSTVYMELRSLRSEDTAVYYCASGFTTVVARGDYWGQGTTVTVSS
VL: B1 VL with S39N, A97T, L101Y, Q105G, L109V
Consider B2, for which the EC50 in assay [1] stood at 0.312 µg/mL.

B3: Hu22F1_HbLa (antibody, V domains shown)
VH: B2 VH with A2V, L70M, R84S
VL: B1 VL with S39N, A97T, L101Y, Q105G, L109V
In turn, B3 displayed an EC50 in assay [1] of 1.04 µg/mL.

B4: Hu14E3_HcLa (antibody, IgG1, V domains shown)
VH: B1 VH with Y27S, R38K, E46T
VL: B1 VL
notes: humanized
Turning to B4, the EC50 in assay [1] stood at 0.0066 µg/mL.

B5: Hu14E3_HbLb (antibody, IgG1, V domains shown)
VH: B1 VH
VL: B1 VL with Y54S
notes: humanized
Consider B5, for which the EC50 in assay [1] is 0.0062 µg/mL.

B6: Hu22F1_HdLa (antibody, V domains shown)
VH: B2 VH with V37L, M48I, V68A
VL: B1 VL with S39N, A97T, L101Y, Q105G, L109V
Turning to B6, the EC50 in assay [1] was 0.0167 µg/mL.

B7: Hu22F1_HaLa (antibody, V domains shown)
VH: B2 VH with A2V, L70M, V72R, K74T, R84S
VL: B1 VL with S39N, A97T, L101Y, Q105G, L109V
notes: humanized 22F1 variant
As to B7, a half-maximal effect in assay [1] (EC50) was put at 1.17 µg/mL.

B8: Hu22F1_HaLb (antibody, V domains shown)
VH: B2 VH with A2V, L70M, V72R, K74T, R84S
VL: B1 VL with S39N, V63F, A97T, L101Y, Q105G, L109V
In assay [1], B8 displayed an EC50 of 0.117 µg/mL.

B9: Hu22F1_HcLb (antibody, V domains shown)
VH: B2 VH
VL: B1 VL with S39N, V63F, A97T, L101Y, Q105G, L109V
In assay [1], B9 came in with an EC50 of 0.0435 µg/mL.

B10: Hu22F1_HbLb (antibody, V domains shown)
VH: B2 VH with A2V, L70M, R84S
VL: B1 VL with S39N, V63F, A97T, L101Y, Q105G, L109V
Regarding B10, the response in assay [1] was half-maximal at 0.094 µg/mL (EC50).

B11: Hu22F1_HdLb (antibody, V domains shown)
VH: B2 VH with V37L, M48I, V68A
VL: B1 VL with S39N, V63F, A97T, L101Y, Q105G, L109V
With B11, a half-maximal effect in assay [1] (EC50) was put at 0.0103 µg/mL.

B12: Hu14E3_HcLb (antibody, IgG1, V domains shown)
VH: B1 VH with Y27S, R38K, E46T
VL: B1 VL with Y54S
notes: humanized
The molecule B12 registered an EC50 in assay [1] of 0.0061 µg/mL.

B13: Hu14E3_HaLb (antibody, IgG1, V domains shown)
VH: B1 VH with I2V, A69V
VL: B1 VL with Y54S
notes: humanized
The molecule B13 came in with an EC50 in assay [1] of 0.0056 µg/mL.

B14: 56C11 (antibody, V domains shown)
VH: EVQLQQSGPELVKPGASVKISCKASGYTFTDFYMNWVKQSHGKSLEWIGDINPNNGGTSYNQKFKGKATLTVDKSSSTAYMELRSLTSEDSAVYYCARDPIYYDYDEVAYWGQGTLVTVSA
VL: DVVMTQTPLSLPVSLGDQASISCRSSQSLVHSNGNTYLHWYLQKPGQSPKLLIYKVSNRFSGVPDRFSGSGSGTDFTLKISRVEAEDLGVYFCSQSTHVPLTFGAGTKLELK
notes: mouse hybridoma antibody; also called hybridoma 56C11
In the case of B14, the EC50 in assay [2] came to 0.0172 µg/mL; in assay [3], 0.0134 µg/mL.

B15: chimeric antibody 42B9 (antibody, human IgG1, V domains shown)
VH: QVQLQQSGAELARPGASVKLSCKASGYTFTSYGIGWVKQRTGQGLEWIGEIYPRSGNTYNNEKFKGKATLTADKSSRTVYMELRSLISEDSAVYFCAREGYSNNYYAMDYWGQGTSVTVFS
VL: DVLMTQTPLSLPVSLGDQASISCISSQSLVHSNGNTYLEWYLQKPGLSPKLLIYKVSNRFSGVPDRLSGSGSGTDFTLRISRVEAEDLGVYYCFQGSHVPFTFGSGTKLEIK
Regarding B15, the EC50 in assay [4] worked out at 20.9 pM; in assay [5], 20.3 pM.

B16: chimeric antibody 67G11 (antibody, human IgG1, V domains shown)
VH: B15 VH
VL: B15 VL with I24R, L47Q, R79K
As to B16, the EC50 in assay [4] turned out to be 19 pM; in assay [5] it was 17.8 pM.
